The assay concerns the target AvrLm10B_like2‐RFP (Leptosphaeria maculans 'brassicae'). Kind of assay: FRET or BRET.

In turn, AvrLm10A_like2‐GFP (natural protein) showed an FRET efficiency E of 32.1% and a donor (GFP) mean fluorescence lifetime τ with the acceptor of 1.89 ns.

Values taken from publication PMC10346447.
